In the supplement of paper PMC10567573:

B1: PLK2 (parent)
chain: MELLRTITYQPAASTKMCEQALGK

Variants of: B1
Assay: protein stability index of a GFP-peptide fusion (GPS, HEK-293T) (PSI 1-6); higher = more stable
Details: c terminus: a fixed tail appended
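Further: lentivirally expressed fusions sorted by FACS into six bins by GFP to DsRed ratio, PSI derived from sequencing read proportions per bin multiplied by bin number.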

Protein stability index: each site, then its substitutions
Q10: C 1.28, Y 3.24, V 4.15, W 2.6, N 3.54, R 2.97, E 2.5, P 2.83, K 2.78, M 1.99, G 3.21, S 2.54, D 2.11, T 2.12, I 2.81, A 2.79, L 2.49, H 1.81
Y9: W 1.45, H 2.1, F 2.05, L 1.73, D 2, N 2.16, K 1.64, G 2.46, P 2.04, S 3.53, M 1.89, R 2.19, I 2.34, Q 2.01, C 2.38, T 2.29, E 2.05, A 2.52, V 2.11
T6: F 1.68, I 2.65, C 1.92, Y 1.6, N 2.81, G 3.05, Q 1.93, W 1.99, R 2.04, D 3.2, S 1.64, E 3.17, P 4.1, L 1.69, H 2.2, M 1.73, K 2.19, V 2.55
S14: R 2.05, W 3.03, F 2.49, L 1.64, P 1.5, T 2.5, Q 2.5, N 3.48, H 3.11, I 1.61, E 2.3, M 2.33, C 2.5, K 2.24, D 1.68, V 2.44, G 1.9, Y 3.88, A 3.14
A12: K 2.03, D 1.82, I 2.35, P 2.18, F 2.97, S 1.56, Q 2.03, G 2.32, W 1.79, V 2.4, L 2.57, M 1.47, T 2.81, E 2.58, C 2.82, Y 2.21, N 2.8, H 2.41, R 2.34
A13: T 1.15, Q 3.13, C 3.34, R 2.39, M 2.88, N 2.54, P 1.74, S 3.29, I 1.82, W 1.82, E 2.09, F 2.33, G 2.97, K 2.61, L 2.43, H 2.36, D 2.51, V 1.96, Y 2.42
P11: F 2.52, H 2.39, L 4.39, R 2.16, E 1.91, Y 2.69, M 2.15, N 1.82, I 2.82, Q 2.65, A 2.12, K 1.93, G 2.1, S 3.09, D 1.6, T 2.72, V 3.59
I7: Y 2.6, D 4.13, T 1.97, Q 2.79, R 3.09, V 1.97, E 2.89, G 3.72, S 2.54, N 3.19, L 2.03, C 2.1, K 3.24, F 1.94, P 2.12, A 2.34, H 2.8, M 2.85, W 2.27
T8: K 2.25, G 2.44, Y 2.93, P 1.97, V 2.49, A 2.94, E 1.78, W 2.55, N 2.68, L 2.91, M 1.96, S 2.21, C 2.32, H 2.03, R 2.5, F 2.17, D 2.01, Q 1.94, I 3.71
